Numbering of substitutions follows the chain as printed.
B1: 1276 (antibody, V domains shown)
VH: EVQLLESGGGLVQPGGSLRLSCAASGFTFNTFAMNWVRQAPGKGLEWVSAITGSGGSTYYADSVKGRFTISRDNSKNTLYLQMNSLRAEDTAVYYCATPITVVRGVSAFDIWGQGTMVTVSS
VL: not shown
B2: 1289 (antibody, V domains shown)
VH: B1 VH with N30S, T31S, N35S, T52S, Y80S, V102L, S107G
VL: not shown
B3: 849 (antibody, V domains shown)
VH: EVQLLESGGGLVQPGGSLRLSCAASGFTFNTFAMNWVRQAPGKGLEWVSAISGSGGSTYYADSVKGRFTISRDNSKNTLYLQMNSLRAEDTAVYYCAALVRGVRDAFDIWGQGTMVTVSS
VL: not shown
B4: 088 (antibody, V domains shown)
VH: EVQLLESGGGLVQPGGSLRLSCAASGFTFSTFAMSWVRQAPGKGLEWVSAISGSGGGTYYADSVKGRFTISRDNSKNTLYLQMNSLRAEDTAVYYCATYIVATIADAFDIWGQGTMVTVSS
VL: not shown
B5: 562 (antibody, V domains shown)
VH: B4 VH with G57S, K76E, T98S, Y99P, V101T, A102V, T103V, I104R, A105G, D106E
VL: not shown
B6: 566 (antibody, V domains shown)
VH: EVQLLESGGGLVQPGGSLRLSCVASGFTFSTFAMSWVRQAPGKGLEWVSAISGSGGSTYYADSVRGRFTVSRDNSKNTLYLQMNSLRAEDTAVYYCASPITMVRGEAFDIWGQGTMVTVSS
VL: not shown
B7: 924 (antibody, V domains shown)
VH: QVQLQESGPGLVKPSQTLSLTCTVSGGSISSGNYYWNWIRQHPGKGLEWIGYIYYSGSTYYNPSLKSRVTISVDTSKNQFSLKLNSVTSADTAVYYCAALITSQNFFFDYWGQGTLVTVSS
VL: not shown
B8: 044 (antibody, V domains shown)
VH: EVQLLESGGGLVQPGGSLRLSCAASGFTFSSYAMSWVRQAPGKGLEWVSAISGSGGNTYYADSVKGRSTISRDNSKNTLYLQMNSLRAEDTAVYYCASMVRGVFINFDYWGQGTLVTVSS
VL: not shown
B9: 531 (antibody, V domains shown)
VH: EVQLLESGGGLVQPGGSLRLSCAASGFTFSRYVMSWVRQAPGKGLEWVSTISGSGGSTYYADSVKGRFTISRDNSKNTLFLQMNSLRAEDTAVYYCAEGAFGAFDIWGQGTMVTVSS
VL: not shown
B10: 093-01 (antibody, V domains shown)
VH: VVQLLESGGGLVQPGGSLRLSCAASGFTFSSYAMSWVRQAPGKGLEWVSAISGSGGSTYYADSVKGRFTISRDNSMHTLFLQINSLRAEDTAVYYCVAIAAAGTNYFDYWGQGTLVTVSS
VL: not shown
B11: 093-05 (antibody, V domains shown)
VH: B10 VH
VL: not shown

Each binder was assayed against T1, human wild type Sortilin on S18-HEK cells (human, UniProt Q99523 78-831) (assay: cell-based or functional assay).
T1 sequence: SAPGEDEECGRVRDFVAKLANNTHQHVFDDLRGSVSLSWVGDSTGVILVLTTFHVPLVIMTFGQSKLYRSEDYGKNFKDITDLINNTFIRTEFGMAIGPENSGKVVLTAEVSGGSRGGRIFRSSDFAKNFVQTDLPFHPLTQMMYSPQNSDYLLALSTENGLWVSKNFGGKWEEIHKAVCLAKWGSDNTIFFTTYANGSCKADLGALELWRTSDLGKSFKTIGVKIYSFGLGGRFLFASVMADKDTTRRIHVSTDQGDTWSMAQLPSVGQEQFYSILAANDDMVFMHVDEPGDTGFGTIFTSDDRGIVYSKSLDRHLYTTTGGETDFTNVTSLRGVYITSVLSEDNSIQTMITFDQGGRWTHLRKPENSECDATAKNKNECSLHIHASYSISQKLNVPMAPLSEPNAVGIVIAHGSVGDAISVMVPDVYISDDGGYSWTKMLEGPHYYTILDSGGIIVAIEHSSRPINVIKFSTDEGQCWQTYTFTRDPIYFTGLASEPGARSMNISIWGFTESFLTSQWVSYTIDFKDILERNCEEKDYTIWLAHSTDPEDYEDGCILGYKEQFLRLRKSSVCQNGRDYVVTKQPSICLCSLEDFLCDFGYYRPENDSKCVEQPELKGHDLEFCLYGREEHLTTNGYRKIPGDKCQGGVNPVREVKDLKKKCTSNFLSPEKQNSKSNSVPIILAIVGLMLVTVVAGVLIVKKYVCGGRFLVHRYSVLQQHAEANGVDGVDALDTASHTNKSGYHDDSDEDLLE
With B1 the “extracellular PGRN in medium of Sortilin over-expressing HEK cells (ELISA), % of untreated control” value (“extracellular PGRN … % of untreated control” below) was 163%.
For B2, the “extracellular PGRN … % of untreated control” value was 117%.
For B3, the “extracellular PGRN … % of untreated control” value was 149%.
With B4 the “extracellular PGRN … % of untreated control” value was 121%.
With B5 the “extracellular PGRN … % of untreated control” value was 139%.
With B6 the “extracellular PGRN … % of untreated control” value was 139%.
With B7 the “extracellular PGRN … % of untreated control” value was 125%.
B8 was tested, and the “extracellular PGRN … % of untreated control” value was 166%.
With B9 the “extracellular PGRN … % of untreated control” value was 140%.
With B10 the “extracellular PGRN … % of untreated control” value was 116%.
For B11, the “extracellular PGRN … % of untreated control” value was 140%.

From patent US20230159643A1 (H LUNDBECK A S, published 2023)
